Experimental data from article PMC10361663.

Experiments:
Importin β = Importin β (UniProt Q14974); experiment: anti-GFP co-IP, Western blot; settings: reference: eGFP-HURP wild type; sites S627
Kif5B = Kif5B (UniProt P33176); experiment: anti-GFP co-IP, Western blot; settings: reference: eGFP-HURP wild type; sites S627

binding against the reference (Importin β): lost
binding against the reference (Kif5B): lost
Substance: HURP 1-846 (from UniProt Q15398) eGFP-HURP S627A
